The source of these data is patent CN114592010A.

The test has as its target NK细胞自身的IL-15受体(IL15Rβγ) (UniProt P14784). The experiment in a line: cell-based or functional assay.
Sequence of UniProt P14784 (P14784 27-551 limits assumed, chain 1 of 2): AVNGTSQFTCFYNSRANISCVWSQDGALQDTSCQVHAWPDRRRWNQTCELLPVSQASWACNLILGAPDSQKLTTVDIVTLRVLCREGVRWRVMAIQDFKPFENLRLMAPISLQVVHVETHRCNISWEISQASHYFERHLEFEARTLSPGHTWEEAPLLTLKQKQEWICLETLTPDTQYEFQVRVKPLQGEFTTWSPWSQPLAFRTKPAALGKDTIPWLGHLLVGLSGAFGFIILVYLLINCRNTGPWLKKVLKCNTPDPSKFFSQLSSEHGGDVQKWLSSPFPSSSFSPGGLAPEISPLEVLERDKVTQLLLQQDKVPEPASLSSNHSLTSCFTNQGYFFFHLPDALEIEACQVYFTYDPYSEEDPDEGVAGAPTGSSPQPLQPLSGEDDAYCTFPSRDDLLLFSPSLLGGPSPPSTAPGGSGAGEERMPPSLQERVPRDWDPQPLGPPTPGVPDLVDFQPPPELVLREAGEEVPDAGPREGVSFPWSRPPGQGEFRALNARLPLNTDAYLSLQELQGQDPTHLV
Sequence of UniProt P14784 (P31785 23-369 limits assumed, chain 2 of 2, further chain): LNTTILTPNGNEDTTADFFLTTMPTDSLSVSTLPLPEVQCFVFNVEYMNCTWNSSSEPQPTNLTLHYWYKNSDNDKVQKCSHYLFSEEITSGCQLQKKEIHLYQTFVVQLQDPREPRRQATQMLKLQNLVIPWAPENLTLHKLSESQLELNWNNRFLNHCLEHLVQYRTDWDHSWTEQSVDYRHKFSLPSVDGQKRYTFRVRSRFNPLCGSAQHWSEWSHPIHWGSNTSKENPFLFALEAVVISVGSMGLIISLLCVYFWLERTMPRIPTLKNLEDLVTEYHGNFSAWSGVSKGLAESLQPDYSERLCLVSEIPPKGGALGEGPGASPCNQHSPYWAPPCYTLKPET

Substance “膜结合型IL-15 (IL-15-CD8 hinge-CD8 TM融合蛋白) (ligand)” displayed a 增殖效果 (CCK8), NKMB cells = 实施例3 NK-CAR(NK-CAR)-MbIL-15, 1d (relative to 0d = 1) of 1.66; a 增殖效果 (CCK8), NKMB cells = 实施例3 NK-CAR(NK-CAR)-MbIL-15, 2d (relative to 0d = 1) of 2.37; a 增殖效果 (CCK8), NKMB cells = 实施例3 NK-CAR(NK-CAR)-MbIL-15, 3d (relative to 0d = 1) of 2.83; a 增殖效果 (CCK8), NKMB cells = 实施例3 NK-CAR(NK-CAR)-MbIL-15, 4d (relative to 0d = 1) of 4.12. This substance displayed a 增殖效果 (CCK8), TMB cells = 实施例4 NK-CAR(T-CAR)-MbIL-15, 1d (relative to 0d = 1) of 1.67; a 增殖效果 (CCK8), TMB cells = 实施例4 NK-CAR(T-CAR)-MbIL-15, 2d (relative to 0d = 1) of 2.7; a 增殖效果 (CCK8), TMB cells = 实施例4 NK-CAR(T-CAR)-MbIL-15, 3d (relative to 0d = 1) of 3.63; a 增殖效果 (CCK8), TMB cells = 实施例4 NK-CAR(T-CAR)-MbIL-15, 4d (relative to 0d = 1) of 7.77.
